The assay addresses GLP-1 receptor (UniProt P43220). In words: cell-based or functional assay.

GLP-1 receptor, sequence (P43220 24-463 limits assumed): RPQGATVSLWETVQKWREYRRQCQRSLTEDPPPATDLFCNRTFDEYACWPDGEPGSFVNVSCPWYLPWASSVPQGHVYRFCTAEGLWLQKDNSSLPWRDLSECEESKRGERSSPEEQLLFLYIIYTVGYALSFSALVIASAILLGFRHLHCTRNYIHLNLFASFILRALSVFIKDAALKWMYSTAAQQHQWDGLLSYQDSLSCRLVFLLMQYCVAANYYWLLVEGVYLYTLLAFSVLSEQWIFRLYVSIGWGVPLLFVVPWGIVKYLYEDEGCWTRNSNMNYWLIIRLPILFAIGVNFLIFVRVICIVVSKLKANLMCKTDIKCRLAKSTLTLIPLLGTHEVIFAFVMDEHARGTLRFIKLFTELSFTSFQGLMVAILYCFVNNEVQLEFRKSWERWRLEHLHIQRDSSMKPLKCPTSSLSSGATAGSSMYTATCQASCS

Dulaglutide (Fc fusion) came in with an EC50 value (pM), luciferase reporter gene (CRE-Luc) in HEK293-GLP1R-CRE-Luc cells of 41.2 pM.
